The text below walks through data of US20260055191A1.

Some results are limits rather than exact numbers.

For the assay, the target named is purified total human IgA (human) (UniProt P11912). The assay can be described thus: cell-based or functional assay.
Sequence of UniProt P11912 (P11912 whole entry): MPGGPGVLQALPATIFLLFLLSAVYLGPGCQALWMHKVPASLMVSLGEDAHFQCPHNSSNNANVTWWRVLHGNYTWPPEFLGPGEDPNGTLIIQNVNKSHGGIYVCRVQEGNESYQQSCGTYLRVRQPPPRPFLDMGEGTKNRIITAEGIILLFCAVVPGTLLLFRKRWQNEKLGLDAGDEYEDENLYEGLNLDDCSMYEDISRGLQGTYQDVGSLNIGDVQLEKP

B1: sCD89 glycoengineered polypeptide (receptor)
chain: QEGDFPMPFISAKSSPVIPLDGSVKIQCQAIREAYLTQLMIIKNSTYREIGRRLKFWNETDPEFVIDHMDANKAGRYQCQYRIGHYRFRYSDTLELVVTGLYGKPFLSADRGLVLMPGEQISLTCSSAHIPFDRFSLAKEGELSLPQHQSGEHPAQFSLGPVDLQVSGIYRCYGWYQRSPYLWSFPSNALELVVTGGGGANSTAPAPAPAHHHHHHHHHH
modifications: A2GalNAc2 N-glycans (82.8% A2GalNAc2) at three N-glycosylation sites: native N65 and N79 (numbering according to Uniprot P24071) and the site in the C-terminal glycotag; >95% all occupied
As for B1, the percent of human IgA target remaining in rat serum (total free+bound human IgA by ELISA) 6 hours after subcutaneous administration of 2.0 mg was < 5%.
